Experiment [1] has as its target T1, recombinant human his-tagged PD-L1 protein (human, UniProt Q9NZQ7 19-238).
T1 construct: also called hPDL1-his; his-tagged human PD-L1; not shown: his tag
Nature of the experiment: ELISA, his-tagged PDL1 coated, OD450. From the text:
Briefly, for ELISA-based binding, his-tagged PDL1 was used as coating protein.

The target in experiment [2] is T1, recombinant human his-tagged PD-L1 …. Nature of the experiment: SPR (Biacore T200), ligand captured on protein A chip, hPDL1-his as analyte. On the procedure: A series of dilutions of human PD-L1 protein were injected over captured antibody at a flow rate of 10 μL/min. […] All the experiments were carried out on a Biacore T200. Data analysis was carried out using Biacore T200 evaluation software.
On the technique in general: SPR reads the build-up and loss of mass on a sensor chip optically.

The target in experiment [3] is T2, IL7R of human primary CD4+ T cells (human, UniProt P16871 21-459).
T2 construct: whole, on cells; also called IL-7 receptor; IL7Rα (CD127) on CD4+ T cells
T2 sequence (looked up): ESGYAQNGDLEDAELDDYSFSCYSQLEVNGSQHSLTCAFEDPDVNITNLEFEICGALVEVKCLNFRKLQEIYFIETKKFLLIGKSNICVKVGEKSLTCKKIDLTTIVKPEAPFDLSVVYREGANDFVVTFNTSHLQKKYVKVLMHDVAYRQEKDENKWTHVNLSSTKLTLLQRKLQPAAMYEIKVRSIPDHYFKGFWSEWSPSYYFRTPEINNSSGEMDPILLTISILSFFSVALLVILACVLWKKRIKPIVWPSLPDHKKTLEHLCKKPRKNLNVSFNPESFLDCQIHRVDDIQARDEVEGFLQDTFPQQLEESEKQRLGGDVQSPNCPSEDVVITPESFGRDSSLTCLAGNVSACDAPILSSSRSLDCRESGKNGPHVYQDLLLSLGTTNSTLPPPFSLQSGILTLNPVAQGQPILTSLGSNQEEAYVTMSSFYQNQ
Nature of the experiment: flow cytometry on human primary CD4+ T cells, 4 °C 30 min, PE anti-human Fc. How it is done:
Briefly, for IL7R binding assay, human primary CD4⁺ T cells were incubated with various anti-PDL1-IL7 fusion molecules at 4° C. for 30 mins. […] For ligation-mediated receptor internalization assay, human primary CD4⁺ T cells were cocultured with fusion molecules at 37° C. for 15 mins to induce internalization. PE-cy7-conjugated-anti-CD127 (IL7Rα) antibody was used to detect the surface IL7Rα by FACS.
A general note: In flow cytometry, cells or beads pass a laser one at a time.

The target in experiment [4] is T3, PD-L1 expressed on cells (Raji-PD-L1; tumor cell lines RKO, HCC1954, HCC827) (human, UniProt Q9NZQ7 19-290).
T3 construct: whole, on cells; also called cell-surface expressed PD-L1; cell surface PD-L1
T3 sequence (Q9NZQ7 19-290): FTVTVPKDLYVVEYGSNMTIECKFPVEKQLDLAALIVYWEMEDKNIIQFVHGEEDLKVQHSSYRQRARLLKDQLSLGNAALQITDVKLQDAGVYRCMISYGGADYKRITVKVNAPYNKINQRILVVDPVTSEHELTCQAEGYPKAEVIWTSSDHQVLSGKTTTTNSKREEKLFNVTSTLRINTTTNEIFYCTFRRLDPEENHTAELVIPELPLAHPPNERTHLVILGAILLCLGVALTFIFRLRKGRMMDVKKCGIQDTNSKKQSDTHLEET
Description: flow cytometry on HCC827 lung cancer cells, MFI.

Experiment [5] concerns the target T3, PD-L1 expressed on cells (Raji-PD-L1; …). Nature of the experiment: flow cytometry on RKO colon carcinoma cells, MFI.
The target is the same in experiment [6]. Description: flow cytometry on HCC1954 breast cancer cells, MFI.
Experiment [7] has the same target. Description: flow cytometry on Raji-PD-L1 cells, PE anti-human IgG Fc, MFI. On the procedure: After washing by FACS staining buffer, the PE-conjugated anti-human IgG Fc specific antibody was added to each well and incubated on ice for 30 mins. The MFI of PE were evaluated by FACS Celesta.

T1 sequence (Q9NZQ7 19-238 limits assumed): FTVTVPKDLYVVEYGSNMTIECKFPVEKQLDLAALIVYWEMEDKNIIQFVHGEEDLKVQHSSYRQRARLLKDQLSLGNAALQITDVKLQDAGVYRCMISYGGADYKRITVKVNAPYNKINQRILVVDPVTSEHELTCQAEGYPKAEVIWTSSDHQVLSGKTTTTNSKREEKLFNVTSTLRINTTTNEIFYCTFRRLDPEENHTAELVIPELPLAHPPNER

B1: α-PDL1(anti-PD-L1 v3) monoclonal antibody (antibody, V domains shown)
VH: EVQLVESGGGLVQPGGSLRLSCAASGFTFSSYDMSWVRQAPGKSLEWVATISDAGGYIYYSDSVKGRFTISRDNAKNSLYLQMNSLRDEDTAVYICAREFGKRYALDYWGQGTTVTVSS
VL: DIQMTQSPSSLSASVGDRVTITCKASQDVTPAVAWYQQKPGKAPKLLIYSTSSRYTGVPSRFSGSGSGTDFTFTISSLQPEDIATYYCQQHYTTPLTFGQGTKLEIK
notes: also called parental anti-PD-L1 antibody (v3)
B1: the EC50 in experiment [1] came to 0.11 nM. Moreover, in experiment [2], the Kd amounted to 2.03 nM, the koff stood at 0.000164 s⁻¹ and the kon was 80700 M⁻¹ s⁻¹. Besides, the binding result in experiment [3] is recorded as “no binding (tested: 100 nM)”.

B2: α-PDL1(anti-PD-L1 v4) monoclonal antibody (antibody, V domains shown)
VH: QVQLLESGGGLVQPGGSLRLSCAASGFTFSSYWMSWVRQAPGKGLEWVANIKQDGSEKYYVDSVKGRFTISRDNAKNSLYLQMNSLRAEDTAVYYCARVALWDDAFDIWGQGTMVTVSS
VL: DIQMTQSPSTLSASVGDRVIITCRASRGISSWLAWYQQKPGKAPNLLISKASSLESGVPSRFSGSGSGTDFTLTISSLQPEDFATYYCQQSSSIPLTFGGGTKVEIK
notes: also called parental anti-PD-L1 (V4) antibody
For the molecule B2, the EC50 in experiment [1] came to 0.46 nM; in experiment [4], 0.17 nM; in experiment [5], 0.19 nM; in experiment [6] it was 0.28 nM; in experiment [7], 0.11 nM. The Kd in experiment [2] amounted to 0.948 nM. Further, the off-rate constant (koff) in experiment [2] was found to be 0.000795 s⁻¹. Besides, the kon in experiment [2] turned out to be 838000 M⁻¹ s⁻¹.

One may read the EC50 as the concentration giving half of the maximal effect. A word on the Kd: it is the free concentration of one partner at which half of the binding sites on the other are occupied at equilibrium, for simple one-to-one binding. By koff is commonly meant the first-order rate constant of dissociation. Broadly, the kon is a measure of how fast the partners come together.
